Measurements as given in article PMC10286367.

B1: mouse full-length p65-HA [mouse] / glycogen synthase kinase 3β (Gsk3β) [mouse (endogenous in hippocampal tissue)] (parent)
chain 1: MDDLFPLIFPSEPAQASGPYVEIIEQPKQRGMRFRYKCEGRSAGSIPGERSTDTTKTHPTIKINGYTGPGTVRISLVTKDPPHRPHPHELVGKDCRDGYYEADLCPDRSIHSFQNLGIQCVKKRDLEQAISQRIQTNNNPFHVPIEEQRGDYDLNAVRLCFQVTVRDPAGRPLLLTPVLSHPIFDNRAPNTAELKICRVNRNSGSCLGGDEIFLLCDKVQKEDIEVYFTGPGWEARGSFSQADVHRQVAIVFRTPPYADPSLQAPVRVSMQLRRPSDRELSEPMEFQYLPDTDDRHRIEEKRKRTYETFKSIMKKSPFNGPTEPRPPTRRIAVPTRNSTSVPKPAPQPYTFPASLSTINFDEFSPMLLPSGQISNQALALAPSSAPVLAQTMVPSSAMVPLAQPPAPAPVLTPGPPQSLSAPVPKSTQAGEGTLSEALLHLQFDADEDLGALLGNSTDPGVFTDLASVDNSEFQQLLNQGVSMSHSTAEPMLMEYPEAITRLVTGSQRPPDPAPTPLGTSGLPNGLSGDEDFSSIADMDFSALLSQISS
chain 2: MSGRPRTTSFAESCKPVQQPSAFGSMKVSRDKDGSKVTTVVATPGQGPDRPQEVSYTDTKVIGNGSFGVVYQAKLCDSGELVAIKKVLQDKRFKNRELQIMRKLDHCNIVRLRYFFYSSGEKKDEVYLNLVLDYVPETVYRVARHYSRAKQTLPVIYVKLYMYQLFRSLAYIHSFGICHRDIKPQNLLLDPDTAVLKLCDFGSAKQLVRGEPNVSYICSRYYRAPELIFGATDYTSSIDVWSAGCVLAELLLGQPIFPGDSGVDQLVEIIKVLGTPTREQIREMNPNYTEFKFPQIKAHPWTKVFRPRTPPEAIALCSRLLEYTPTARLTPLEACAHSFFDELRDPNVKLPNGRDTPALFNFTTQELSSNPPLATILIPPHARIQAAASPPANATAASDTNAGDRGQTNNAASASASNST

How the values were obtained:
[1] = variants of: B1; test: co-IP with Gsk3β followed by WB, band quantification; settings: with glycogen synthase kinase 3β (Gsk3β) [mouse (endogenous in hippocampal tissue)]; p65-HA variant co-expressed with Ogt-Flag and Gsk3β; n = 3 independent experiments; parent: 1; read off a plot
[2] = variants of: B1; test: co-IP with HA (p65) followed by WB, band quantification; settings: with glycogen synthase kinase 3β (Gsk3β) [mouse (endogenous in hippocampal tissue)]; p65-HA variant co-expressed with Ogt-Flag and Gsk3β; n = 3 independent experiments; parent: 1; read off a plot

Variant | response (relative protein level (HA / Gsk3β)) [1] | response (relative protein level (Gsk3β / HA)) [2]
chain 1 S374A | 1.1 | 1
chain 1 S384A | 2.4 | 2.1

The remaining lines, values ahead:

response (relative protein level (HA / Gsk3β)) [1] | response (relative protein level (Gsk3β / HA)) [2] | Variant
1 | 1.1 | chain 1 S396A
1 | 1.1 | chain 1 S370A
